The experiment has as its target TIM (the TIM-EGFP-LacI bait of the FRAP experiment, not named). Briefly: FRAP.

“TagRFP-IWS1-TND (from UniProt Q96ST2 614-692) (domain or fragment)” displayed an FRAP half-life of 11.7 s.
